The text below walks through data of patent publication US20160032001A1 (APEXIGEN, published 2016).

Test [1] concerns the target T1, human RANKL protein (human, UniProt O14788 140-317, limits assumed).
T1 sequence (looked up): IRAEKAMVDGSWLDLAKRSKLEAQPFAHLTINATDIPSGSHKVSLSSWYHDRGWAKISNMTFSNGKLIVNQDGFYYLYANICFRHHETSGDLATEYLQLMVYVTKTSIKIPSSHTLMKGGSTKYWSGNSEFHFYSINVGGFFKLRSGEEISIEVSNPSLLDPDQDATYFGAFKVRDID
The test is described as follows: competition ELISA: RANKL (0.5 ug/ml) pre-incubated with the antibody, then binding to coated human RANK (8 ug/ml) detected; blocked partner RANK.

Test [2] has as its target T2, RANKL expressed on the surface of 293 cells (UniProt O14788 1-317, limits assumed).
T2 construct: whole, on cells; also called RANKL-transfected 293 cells; cells expressing RANKL
T2 sequence (looked up): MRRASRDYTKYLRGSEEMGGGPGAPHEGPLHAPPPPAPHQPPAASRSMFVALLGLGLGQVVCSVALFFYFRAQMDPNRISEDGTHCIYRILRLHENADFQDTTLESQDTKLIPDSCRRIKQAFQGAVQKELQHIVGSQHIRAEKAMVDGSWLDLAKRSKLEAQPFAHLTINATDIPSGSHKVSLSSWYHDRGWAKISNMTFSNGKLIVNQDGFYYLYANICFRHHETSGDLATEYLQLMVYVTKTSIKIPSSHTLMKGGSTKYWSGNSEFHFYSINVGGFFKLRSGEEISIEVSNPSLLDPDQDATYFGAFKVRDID
Put plainly: flow cytometry (MFI) on RANKL-transfected 293 cells.

Test [3] deals with T2, RANKL expressed on the surface of 293 …. The description is as above. The source holds these as a separate data set.
Test [4] addresses T1, human RANKL protein. Put plainly: competition ELISA: RANKL (0.5 ug/ml) pre-incubated with the antibody, then binding to coated human RANK (8 ug/ml) detected; blocked partner RANK. This is another data set of the same source.
The target in test [5] is T1, human RANKL protein. Put plainly: cell-based or functional assay.
Test [6] concerns the target T1, human RANKL protein. The test is described as follows: surface plasmon resonance.
The target in test [7] is T1, human RANKL protein. Put plainly: competition ELISA: RANKL (0.5 ug/ml) pre-incubated with the antibody, then binding to coated human RANK (8 ug/ml) detected; blocked partner RANK. This is another data set of the same source.
The target in test [8] is T2, RANKL expressed on the surface of 293 …. The test is described as follows: flow cytometry (MFI) on RANKL-transfected 293 cells. This is another data set of the same source.
Test [9] deals with T1, human RANKL protein. The test is described as follows: competition ELISA: RANKL (0.5 ug/ml) pre-incubated with the antibody, then binding to coated human RANK (8 ug/ml) detected; blocked partner RANK. This is another data set of the same source.
In test [10] the target is T2, RANKL expressed on the surface of 293 …. Put plainly: flow cytometry (MFI) on RANKL-transfected 293 cells. This is another data set of the same source.

Where two headings read alike, the source gives them in different places.

B1: clone EBI-51-4 rabbit anti-RANKL antibody (antibody, V domains shown)
VH: QSVEESGGRLVKPGESLTLTCTASGFSLSSDVISWVRQAPGKGLEWIGYGWSGGPTYYANWAKGRFTISKTSSTTVDLKITSPTTEDTATYFCARGFNPFDPWGPGTLVTVSS
VL: DMTQTPASVSEPVGGTVTIKCQASQNIGSNLAWYQQKPGQRPKLLIYRASTLASGVSSRFKGSGSGTQFTLTISDLECADAATYYCQQGYSAGNVDNSFGGGTEVVVK
With B1, in the test with human RANKL protein [1], the IC50 amounted to 0.0388 µg/mL. The same molecule had an EC50 in [2] of 0.078 µg/mL.

B2: clone 327 rabbit anti-RANKL antibody (antibody, V domains shown)
VH: QSLEESGGRLVTPGTPLTLTCTVSGFSLSKYEINWVRQAPGKGLEWIGYIDVGSGTWYASWAKGRFTISKTSTTVALRITSPTTEDTATYFCSRQYNPMDLWGPGTLVTVSS
VL: DMTQTPASVEAAVGGTVTIKCQASQNIGSNLAWYQQKPGQRPKLLIYSASTLASGVPSRFKGSGSGTQFTLTISGVQCDDAATYYCQQGYSVGNVNNAFGGGTEVVVK
Take B2: the EC50 in [3] came out at 0.0871 µg/mL. In the test with human RANKL protein [4], this molecule registered an IC50 of 0.0416 µg/mL. In addition, the “IC50 in a RAW cell assay (TRAP activity, OD 405 nM)” value with human RANKL protein [5] was determined as 0.0075 µg/mL. In the test with human RANKL protein [6], this molecule showed a Kd of 2.13 nM, a koff of 0.0003 s⁻¹ and a kon of 141000 M⁻¹ s⁻¹.

B3: clone EBI-51-23 rabbit anti-RANKL antibody (antibody, V domains shown)
VH: QSVKESEGGLFKPTDTLTLTCTVSGFSLSIYEISWVRQAPGKELEWIGYIGVGGVTYYANWAKSRSTITRNTNQKMVALKMTSLTAADTATYFCARGYNPFDLWGPGTLVTVSS
VL: DMTQTPASVEVAVGGTVTINCQASQNIGSNLAWYQQKPGQPPKLLIYKASTLASGVPSRLKGSGSGTEFTLTISGVQCDDAATYYCQQGYTTGNVDNPFGGGTEVVVK
In the test with human RANKL protein [1], B3 displayed an IC50 of 0.0482 µg/mL. The same molecule showed an EC50 in [2] of 0.156 µg/mL.

B4: clone 415 rabbit anti-RANKL antibody (antibody, V domains shown)
VH: QSVEESGGRLVTPGGSLTLTCTVSGFSLSNYEMNWVRQAPGKGLEWIGYIDVGSGTWYASWAKGRFTISKTSTTVDLKITSPTTEDTATYFCSRQYNPMDLWGPGTLVTVSS
VL: DMTQTPASVEVAVGGTVTIKCQASQNIGSNLAWYQQKPGQRPKLLIYSASTLASGVPSRFKGSGSGTQFTLTISGVQCDDAATYYCQQGYSVGNVNNAFGGGTEVVVK
On to B4, for which the IC50 with human RANKL protein [7] stood at 0.0545 µg/mL. Also, the EC50 in test [8] amounted to 0.16 µg/mL.

B5: clone 388 rabbit anti-RANKL antibody (antibody, V domains shown)
VH: QSVEESGGRLVTPGTPLTLTCTVSGFSLSSGVVSWVRQAPGKGLEWIGYAWSGGPTYYANWAKGRFTISKSSTTVDLKITSPTTADTATYFCARGYNGMDPWGPGTLVTVSS
VL: DMTQTPASVEVAVGGTVTIKCQASQNIGSNLAWYQQKPGQPPKLLIYKASTLASGVPSRFRGSGSGTEFTLAISDLECADAATYYCQQGYTTKDVVNPFGGGTEVVVK
In test [3], B5 registered an EC50 of 0.665 µg/mL. The molecule further yielded an IC50 in the test with human RANKL protein [4] of 0.161 µg/mL.

B6: clone 411 rabbit anti-RANKL antibody (antibody, V domains shown)
VH: QSVEESGGRLVTPGTPLTLTCTVSGFSLSSGVVSWVRQAPGKGLEWIGYAWSGGPTYYANWAKGRFTISKSSTTVDLKITSPTTADTATYFCARGYNGMDPWGPGTLVTVSS
VL: DMTQTPASVEVAVGGTVTIKCQASQNIGSNLAWYQQKPGQPPKLLIYKASTLASGVPSRFRGSGSGTEFTLAISDLECADAATYYCQQGYTTKDVVNPFGGGTEVVVK
For the molecule B6, in the test with human RANKL protein [7], the IC50 stood at 0.0771 µg/mL. This molecule also registered an EC50 in test [8] of 0.108 µg/mL.

B7: clone 210 rabbit anti-RANKL antibody (antibody, V domains shown)
VH: QSVKESGGGLVTPGGTLTLTCTASGFSLSNNAMSWVRQAPGKGLEWIGYIYPGGSPYYANWAKGRFTISRTSTTVDLKMTSLTTEDTATYFCARHVSDGGWYLYIWGPGTLVTVSL
VL: DMIQTPASVEVAVGGTVTINCQASQSIGSNLAWYQQKPGQPPKLLIYGASTLASGVPSRFKGSGSGTQFTFTISDVECTAAATYYCQQAYSISNVDNAFGGGTEVVVK
For the molecule B7, the IC50 with human RANKL protein [9] amounted to 0.071 µg/mL. Also, the EC50 in test [10] worked out at 0.292 µg/mL.

B8: clone 420 rabbit anti-RANKL antibody (antibody, V domains shown)
VH: QEQLKESGGGLVTPGGILTLTCTASGFSLRSNAMSWVRQAPGKGLEWIGYIYPGGAPHYASWAKGRFTISRNSTTVDLKMTSLTTEDTATYFCARHVSGGGWYLDIWGPGTLVTVSL
VL: DMIQTPASVEVGVGGTVTINCQASQNIGSNLAWYQQKPGQPPKFLIYGASTLASGVSSRFKGSGSGTRFTFTISDVECTDAATYYCQQAYSVGNVDNAFGGGTEVVVK
For B8, the IC50 with human RANKL protein [7] is 0.0754 µg/mL. Besides, the response in test [8] was half-maximal at 0.215 µg/mL (EC50).

B9: clone 174 rabbit anti-RANKL antibody (antibody, V domains shown)
VH: QEQLQESGGGLITPGGTLTLTCTASGFSFNRNALSWVRQAPGKGLEWIGYIYSGGSPYYANWAKGRFNVSRTSTTVDLRMTSLTTEDTATYFCARHVSGGGWYLDIWGPGTLVTVSL
VL: DMIQTPASVEVAVGGTVTINCQASQNIGSNLAWYQQKPGQPPKLLIYGTSTLASGVSSRFKGSGFGTQFTFTISDVECTDAATYYCQQAYSISNVDNAFGGGTEVVVK
In the test with human RANKL protein [9], B9 displayed an IC50 of 0.0762 µg/mL. Moreover, the EC50 in test [10] worked out at 0.13 µg/mL.

B10: clone 447 rabbit anti-RANKL antibody (antibody, V domains shown)
VH: QEQLKESGGGLVTPGGILTLTCTASGFSLRSNAMSWVRQAPGKGLEWIGYIYPGGAPHYASWAKGRFTISRNSTTVDLKMTSLTTEDTATYFCARHVSGGGWYLDIWGPGTLVTVSL
VL: DMIQTPASVEVGVGGTVTINCQASQNIGSNLAWYQQKPGQPPKFLIYGASTLASGVSSRFKGSGSGTRFTFTISDVECTDAATYYCQQAYSVGNVDNAFGGGTEVVVK
For the molecule B10, the IC50 with human RANKL protein [7] worked out at 0.0537 µg/mL. For the same molecule, in [8], the EC50 is 0.0617 µg/mL.

B11: clone 416 rabbit anti-RANKL antibody (antibody, V domains shown)
VH: QSVKESGGGLVTPGGTLTLTCTVSGFSLSRNAMSWVRQTPGKGLEWIGYIYSGSSPYYANWAKGRFTISRTSTTVDLKMTSLTTEDTATYFCARHVSDGGWYLDIWGPGTLVAVSL
VL: DMIQTPASVEVVVGGTVTFNCQASQNIGSNLAWYQQKPGQPPKLLIYSASTLASGVPSRFKGSGSGTQFTFTISDVECTDAATYYCQQAYSISNVDNAFGGGTEVVVK
B11: the IC50 with human RANKL protein [7] is 0.138 µg/mL. This molecule had an EC50 in test [8] of 0.203 µg/mL.

B12: clone 383 rabbit anti-RANKL antibody (antibody, V domains shown)
VH: QSLEESGGDLVKPGASLTLTCTASGFSFSRYVCWVRQAPGKGLEWIGCIAAGSSGYTYYASWAKGRLTISKTSSTTLTLQMTSLTVADTATYFCARSGDSYVGYFNLWGPGTLVTVSS
VL: IVMTQTPASVEAAVGGTVTIKCQASQNIYNYLAWYQQQPGQPPKLLIYSASNLASGVSSRFKGSGSGTEFTLTISDLECGDAATYYCQSYYDSSRISYGSAFGGGTEVVVK
Take B12: the EC50 in test [3] came to 0.15 µg/mL. The IC50 with human RANKL protein [4] turned out to be 0.0621 µg/mL. The “IC50 in a RAW cell assay (TRAP activity, OD 405 nM)” value in the test with human RANKL protein [5] is 0.002 µg/mL.

B13: clone EBI-51-11 rabbit anti-RANKL antibody (antibody, V domains shown)
VH: QSVEESGGRLITPGTPLTLTCTVSGFSLSTDVVSWVRQAPGTGLEWIGYTWSGGSTYYAIWAKGRFTISKTSSTTVDLKITSPTTEDTATYFCARGFNPFDPWGPGTLVTVSS
VL: DMTQTPASVSEPVGGTVTIKCQASQNIGSNLAWYQQKPGQRPKLLIYRASTLASGVSSRFKGSGSGTQFTLTISDLECADAATYYCQQGYSAGNVDKHVFGGGTEVVVK
B13: the IC50 with human RANKL protein [1] is 0.0656 µg/mL. This molecule returned an EC50 in test [2] of 0.0757 µg/mL.

B14: clone EBI-51-1 rabbit anti-RANKL antibody (antibody, V domains shown)
VH: QEQLEESGGGLVKPEGSLTLTCTASGFDLSTYYYMCWVRQAPGKGLEWIACIYTGRASTYYATWAKGRFTISKTSSTTVTLQMTSLTAADTATFFCASKAGDIWYYGMDLWGPGTLVTVSS
VL: DMTQTPASVSEPVGGTVTIKCQASQNIGSNLAWYQQKPGQRPKLLIYRASTLASGVSSRFKGSGSGTQFTLTISDLECADAATYYCQQGYSAGNVDNNTFGGGTEVVVK
Regarding B14, in the test with human RANKL protein [1], the IC50 was 0.0753 µg/mL. This molecule also showed an EC50 in test [2] of 0.0867 µg/mL.

B15: clone EBI-51-2 rabbit anti-RANKL antibody (antibody, V domains shown)
VH: QSLEESGGRLVTPGTPLTLTCTASGFTISTDVISWVRQAPGKGLEWIGYTWSGGSTYYANWAKGRFTLSKTSSTTVDLKITSPTIEDTATYFCARGFNPFDPWGPGTLVTVSS
VL: DMIQTPASVSEPVGGTVTIVCQASQNIGSNFAWYQQKPGQPPKLLIYRASTLASGVSSRFKGSGFGTQFTLTISDLECADAATYYCQQGYSAGNVDNNFGGGTEVVVK
Molecule B15 displayed an IC50 with human RANKL protein [1] of 0.0389 µg/mL. This molecule had an EC50 in test [2] of 0.0621 µg/mL.
